The Kd is the constant that tells how readily two partners part at equilibrium. What is called koff is the first-order rate constant of dissociation. Usually kon stands for the second-order rate constant of association. Usually IC50 stands for the concentration at which inhibition is half-maximal. Low readings indicate higher potency, high ones lower potency.

Numbering of substitutions follows the chain as printed.

B1: 2H8.31 (antibody, human IgG1, V domains shown)
VH: EVQLQQSGPELVKPGASVKLSCKASGYTFTNFWIHWLKQRPGQGLEWIGMIDPSDSYTKYNQKFKAKATLTVDTSSSTTYMHLSSLTSEDSAVYYCARSGVAFPYWGQRTLVTVSA
VL: DIQMTQSQKFMSKSVGDRVSVTCKASQNVGSNVAWYQQKSGQSPKSLIYSASHRYSGVPDRFTGSGSGTDFTLTISNVQSEDLADYFCQQYNSYPYTFGGGTRLEIK
notes: human IgG1/kappa; also called 2H8_HC + 2H8_LCvar6
B2: 2H8.37 (antibody, human IgG1, V domains shown)
VH: B1 VH
VL: B1 VL with Q3L, K13T, S31R, K39I, S46P, A84V, D85E, Y86F, R103K
notes: human IgG1/kappa; also called 2H8_HC + 2H8_LCvar7
B3: 2H8.02 (antibody, human IgG1, V domains shown)
VH: EVQLQQPGTELVRPGTSVKLSCKASGYTFTNYWMHWIKQRPGQGLEWIGMIDPSDTYTKFNQNFKGKATLTVDTSSSTAYMQLNSLTSEDSAVYYCARSGVAFPYWGQGTTVTVSS
VL: B1 VL with Q3V, R18T, N28D, S31R
notes: human IgG1/kappa; also called 2H8_HCvar2 + 2H8_LC
B4: hu2H8v3 (antibody, V domains shown)
VH: QVQLVQSGAEVKKPGASVKVSCKASGYTFTNFWIHWLRQAPGQGLEWMGMIDPSDSYTKYNQKFKARVTMTVDTSTSTTYMELSSLRSEDTAVYYCARSGVAFPYWGQGTLVTVSS
VL: DIQMTQSPSSLSASVGDRVTITCKASQDVGRNVAWYQQKPGKAPKLLIYSASHRYSGVPSRFSGSGSGTDFTLTISSLQPEDFATYYCQQYNSYPYTFGQGTKVEIK
notes: humanized; also called hu2H8_HC3 + hu2H8_LC1
B5: hu2H8v30 (antibody, V domains shown)
VH: B4 VH with V68A, M70L
VL: B4 VL with A43S, L46S, Y87F
notes: humanized; also called hu2H8_HC7 + hu2H8_LC5
B6: hu2H8v9 (antibody, V domains shown)
VH: B4 VH
VL: B4 VL with A43S
notes: humanized; also called hu2H8_HC3 + hu2H8_LC2
B7: hu2H8v10 (antibody, V domains shown)
VH: B4 VH with L37V, V68A, M70L, V72R, T79V
VL: B4 VL with A43S
notes: humanized
B8: hu2H8v20 (antibody, V domains shown)
VH: B4 VH with V72R
VL: B4 VL with A43S, L46S
notes: humanized; also called hu2H8_HC2 + hu2H8_LC4
B9: hu2H8v4 (antibody, V domains shown)
VH: B4 VH with L37V, V68A, M70L, V72R, T79V
VL: B4 VL
notes: humanized; also called hu2H8_HC5 + hu2H8_LC1
B10: hu2H8v8 (antibody, V domains shown)
VH: B4 VH with V72R
VL: B4 VL with A43S
notes: humanized; also called hu2H8_HC2 + hu2H8_LC2
B11: hu2H8v18 (antibody, V domains shown)
VH: B4 VH with V68A, M70L
VL: B4 VL with L46S
notes: humanized; also called hu2H8_HC7 + hu2H8_LC3
B12: hu2H8v21 (antibody, V domains shown)
VH: B4 VH
VL: B4 VL with A43S, L46S
notes: humanized; also called hu2H8_HC3 + hu2H8_LC4
B13: hu2H8v7 (antibody, V domains shown)
VH: B4 VH with L37V, V72R
VL: B4 VL with A43S
notes: humanized; also called hu2H8_HC1 + hu2H8_LC2
B14: hu2H8v19 (antibody, V domains shown)
VH: B4 VH with L37V, V72R
VL: B4 VL with A43S, L46S
notes: humanized; also called hu2H8_HC1 + hu2H8_LC4
B15: hu2H8v6 (antibody, V domains shown)
VH: B4 VH with V68A, M70L
VL: B4 VL
notes: humanized; also called hu2H8_HC7 + hu2H8_LC1
B16: hu2H8v22 (antibody, V domains shown)
VH: B4 VH with L37V, V68A, M70L, V72R, T79V
VL: B4 VL with A43S, L46S
notes: humanized; also called hu2H8_HC5 + hu2H8_LC4
B17: hu2H8v11 (antibody, V domains shown)
VH: B4 VH with L37V, V68A, M70L, T79V
VL: B4 VL with A43S
notes: humanized; also called hu2H8_HC6 + hu2H8_LC2
B18: hu2H8v24 (antibody, V domains shown)
VH: B4 VH with V68A, M70L
VL: B4 VL with A43S, L46S
notes: humanized; also called hu2H8_HC7 + hu2H8_LC4
B19: hu2H8v26 (antibody, V domains shown)
VH: B4 VH with V72R
VL: B4 VL with A43S, L46S, Y87F
notes: humanized; also called hu2H8_HC2 + hu2H8_LC5
B20: hu2H8v13 (antibody, V domains shown)
VH: B4 VH with L37V, V72R
VL: B4 VL with L46S
notes: humanized; also called hu2H8_HC1 + hu2H8_LC3
B21: hu2H8v5 (antibody, V domains shown)
VH: B4 VH with L37V, V68A, M70L, T79V
VL: B4 VL
notes: humanized; also called hu2H8_HC6 + hu2H8_LC1
B22: hu2H8v15 (antibody, V domains shown)
VH: B4 VH
VL: B4 VL with L46S
notes: humanized; also called hu2H8_HC3 + hu2H8_LC3
B23: hu2H8v14 (antibody, V domains shown)
VH: B4 VH with V72R
VL: B4 VL with L46S
notes: humanized; also called hu2H8_HC2 + hu2H8_LC3
B24: hu2H8v12 (antibody, V domains shown)
VH: B4 VH with V68A, M70L
VL: B4 VL with A43S
notes: humanized; also called hu2H8_HC7 + hu2H8_LC2
B25: hu2H8v23 (antibody, V domains shown)
VH: B4 VH with L37V, V68A, M70L, T79V
VL: B4 VL with A43S, L46S
notes: humanized; also called hu2H8_HC6 + hu2H8_LC4
B26: hu2H8v16 (antibody, V domains shown)
VH: B4 VH with L37V, V68A, M70L, V72R, T79V
VL: B4 VL with L46S
notes: humanized; also called hu2H8_HC5 + hu2H8_LC3
B27: hu2H8v28 (antibody, V domains shown)
VH: B4 VH with L37V, V68A, M70L, V72R, T79V
VL: B4 VL with A43S, L46S, Y87F
notes: humanized; also called hu2H8_HC5 + hu2H8_LC5
B28: hu2H8v25 (antibody, V domains shown)
VH: B4 VH with L37V, V72R
VL: B4 VL with A43S, L46S, Y87F
notes: humanized; also called hu2H8_HC1 + hu2H8_LC5

T1 sequence (P56817 22-457): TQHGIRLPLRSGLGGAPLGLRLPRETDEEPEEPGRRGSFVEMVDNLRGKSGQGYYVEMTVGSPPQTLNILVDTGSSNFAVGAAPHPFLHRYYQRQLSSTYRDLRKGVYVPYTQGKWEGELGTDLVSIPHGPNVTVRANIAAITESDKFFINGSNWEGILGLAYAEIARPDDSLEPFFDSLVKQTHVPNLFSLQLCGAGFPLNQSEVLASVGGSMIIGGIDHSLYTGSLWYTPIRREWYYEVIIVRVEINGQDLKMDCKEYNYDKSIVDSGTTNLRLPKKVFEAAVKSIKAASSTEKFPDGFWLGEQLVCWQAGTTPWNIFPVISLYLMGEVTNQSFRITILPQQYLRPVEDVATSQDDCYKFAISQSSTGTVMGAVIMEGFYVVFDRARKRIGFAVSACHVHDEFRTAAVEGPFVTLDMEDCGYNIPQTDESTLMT

The first assay addresses T1, recombinant BACE1 (BACE1 extracellular domain, R&D Systems Cat#931-AS) (UniProt P56817 22-457).
T1 construct: extracellular domain; also called BACE1 extracellular domain protein
As to the kind of experiment: SPR Biacore. On the technique in general: Surface plasmon resonance follows binding to a sensor surface in real time, without labels.
With B1, the Kd turned out to be 11.1 nM, the koff stood at 0.000168 s⁻¹ and the kon worked out at 15200 M⁻¹ s⁻¹.

As to B2, the Kd stood at 16.4 nM, the koff was found to be 0.000331 s⁻¹ and the kon is 20200 M⁻¹ s⁻¹.

Take B3: the dissociation constant Kd came to 13.1 nM, the dissociation rate constant (koff) was 0.000265 s⁻¹ and the on-rate constant (kon) was 20200 M⁻¹ s⁻¹.

For the next assay, the target named is T1, recombinant BACE1 (BACE1 extracellular …). The experiment in a line: SPR Biacore. The source holds these as a separate data set.
As for B4, the Kd was 172 nM.

As to B5, the Kd came out at 23.7 nM.

For B6, the dissociation constant (Kd) came to 130 nM.

Turning to B7, the Kd came out at 160 nM.

As for B8, the Kd was determined as 13.2 nM.

As to B9, the Kd was determined as 169 nM.

As to B10, the Kd worked out at 155 nM.

As for B11, the Kd worked out at 20.7 nM.

On to B12, for which the dissociation constant Kd turned out to be 13.5 nM.

For B13, the Kd was 150 nM.

Turning to B14, the dissociation constant (Kd) turned out to be 17.4 nM.

With B15, the Kd came to 109 nM.

As for B16, the dissociation constant Kd stood at 21.9 nM.

On to B17, for which the Kd stood at 88.3 nM.

Regarding B18, the dissociation constant Kd was 74 nM.

On to B19, for which the Kd stood at 16.3 nM.

As to B20, the Kd worked out at 22.8 nM.

In the case of B21, the Kd was found to be 96.3 nM.

Regarding B22, the Kd turned out to be 16.4 nM.

With B23, the equilibrium dissociation constant (Kd) worked out at 17.7 nM.

B24: the dissociation constant Kd is 171 nM.

In the case of B25, the dissociation constant Kd was 28 nM.

On to B26, for which the dissociation constant Kd was 25.6 nM.

Regarding B27, the dissociation constant Kd was determined as 19.5 nM.

Take B28: the dissociation constant Kd came out at 22.1 nM.

The target of another assay is cellular BACE1 in CHOK1-huAPP cells. As to the kind of experiment: cell-based or functional assay.
Regarding B1, the half-maximal inhibitory concentration (IC50) is 33 nM and the Max. % inhibition was 94%.

Regarding B2, the half-maximal inhibitory concentration (IC50) is 32 nM and the Max. % inhibition came to 93%.

In the case of B3, the concentration for half-maximal inhibition (IC50) was 42 nM and the Max. % inhibition came out at 81%.

The values are drawn from patent publication US20210070881A1 (DENALI THERAPEUTICS, published 2021).
